One experiment concerns the target human LRP6 (human, UniProt O75581 20-1613). The experiment is described as follows: cell-based or functional assay.
Experiment [1] addresses T1, LRP6-Fc (R&D Systems, catalog No: 1505-LR) (human, UniProt O75581 20-1370).
T1 construct: Purchased reagent; also called LRP6 protein; 360 KD homodimer antigen LRP6-Fc; not shown: Fc part of the purchased fusion
T1 sequence (looked up): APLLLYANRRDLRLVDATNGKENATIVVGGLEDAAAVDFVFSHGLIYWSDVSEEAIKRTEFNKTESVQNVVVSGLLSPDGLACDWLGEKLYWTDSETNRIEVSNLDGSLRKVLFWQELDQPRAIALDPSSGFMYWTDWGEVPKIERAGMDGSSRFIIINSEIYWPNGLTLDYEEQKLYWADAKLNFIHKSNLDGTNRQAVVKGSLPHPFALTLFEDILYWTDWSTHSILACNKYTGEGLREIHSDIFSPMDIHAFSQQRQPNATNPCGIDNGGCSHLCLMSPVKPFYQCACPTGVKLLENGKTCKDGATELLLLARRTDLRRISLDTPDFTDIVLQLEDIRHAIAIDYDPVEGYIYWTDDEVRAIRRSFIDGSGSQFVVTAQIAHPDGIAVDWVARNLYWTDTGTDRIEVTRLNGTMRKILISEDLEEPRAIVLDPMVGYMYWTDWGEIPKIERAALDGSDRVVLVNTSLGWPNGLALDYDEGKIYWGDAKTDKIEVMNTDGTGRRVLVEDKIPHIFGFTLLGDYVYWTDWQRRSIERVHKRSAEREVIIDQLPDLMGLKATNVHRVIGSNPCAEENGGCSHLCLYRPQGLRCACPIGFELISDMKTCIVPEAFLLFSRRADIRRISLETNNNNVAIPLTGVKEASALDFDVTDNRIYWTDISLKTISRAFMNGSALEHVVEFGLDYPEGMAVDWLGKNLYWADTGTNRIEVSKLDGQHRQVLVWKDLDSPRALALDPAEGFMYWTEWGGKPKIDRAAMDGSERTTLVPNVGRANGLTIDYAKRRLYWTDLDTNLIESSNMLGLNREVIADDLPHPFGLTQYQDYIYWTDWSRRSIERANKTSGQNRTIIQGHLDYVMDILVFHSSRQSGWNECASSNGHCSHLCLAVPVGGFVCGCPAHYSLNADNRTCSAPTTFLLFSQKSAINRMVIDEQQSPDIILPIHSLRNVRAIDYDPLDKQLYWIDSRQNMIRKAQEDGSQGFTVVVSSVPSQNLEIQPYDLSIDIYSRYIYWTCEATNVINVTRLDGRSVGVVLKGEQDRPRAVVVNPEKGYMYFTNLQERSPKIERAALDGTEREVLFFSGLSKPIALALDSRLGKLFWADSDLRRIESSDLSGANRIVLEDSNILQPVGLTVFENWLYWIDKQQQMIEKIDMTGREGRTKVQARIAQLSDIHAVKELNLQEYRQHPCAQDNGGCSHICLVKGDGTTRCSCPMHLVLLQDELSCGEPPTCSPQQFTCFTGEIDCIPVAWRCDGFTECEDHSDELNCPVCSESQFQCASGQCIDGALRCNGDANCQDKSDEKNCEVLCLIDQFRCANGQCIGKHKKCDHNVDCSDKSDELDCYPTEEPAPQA
Nature of the experiment: ELISA on coated LRP6-Fc, detection with pentaHis-HRP. The protocol: (§1) Binding EC₅₀ of scFvs against LRP6 protein was measured by ELISA. Maxisorp plate was coated with LRP6-Fc (R&D Systems, catalog No: 1505-LR) at 3 μg/ml at 4° C. overnight. The plate was blocked with 50 μl of 2% BSA for one hour, and washed five times with the wash solution. The samples were diluted with 1% BSA accordingly. The plate was incubated at RT for 1 h, and washed for 3 times. Detection was done by adding 50 μl pentaHis-HRP (Qiagen Mat. No. 1014992) at 1:2000 dilution in 1% BSA, incubated at RT for 1 h, and washed 3 times. 50 μl of substrate reagent A plus B (R&D systems) was added, then incubated for 5-20 min depending on the color. The reaction was stopped by adding 25 μl of the stop solution, followed by plate reading at 450 nm.
Affinity analysis ELISA EC₅₀ was carried out for both scFv08168 and scFv06475 wild type and variants.

Experiment [2] has as its target T1, LRP6-Fc (R&D Systems, catalog No: …). The experiment is described as follows: Proteon XPR36, scFv captured by anti-His IgG, LRP6-Fc as analyte, bivalent analyte model. The protocol:
Kinetics experiments were performed using BioRad's Proteon XPR36 biosensor. All experiments were performed at room temperature using PBST (phosphate buffered saline with 0.05% Tween-20) as the running buffer. All of the six vertical channels on a GLM chip were activated for 5 min at a flow rate of 30 μl/min using freshly prepared mixture of EDC (400 mM) and sNHS (100 mM). Anti-His mouse IgG1 (R&D systems, catalog No: MAB050) was diluted to 20 μg/ml in 10 mM sodium acetate, PH 5.0 and coupled to the chip for 5 min along separate vertical channels at a flow rate of 30 μl/min. 1 M ethanolamine was then injected for 5 min at 30 μl/min to deactivate the un-reacted sNHS groups. 2 μg/ml MOR08168 scFv wild type or 2 μg/ml MOR08168D1 mutant was then immobilized on different vertical channels for 15 sec at 100 μl/min followed by two 1 min injection of the running buffer at 30 μl/min in the horizontal direction. The sixth vertical channel was used as the channel reference and no ligand was immobilized on this channel. […] Association was monitored for 5 min and dissociation was monitored for 20 min. Buffer was injected in the sixth channel to serve as a row reference for real time baseline drifting correction. […] Kinetics analysis on the Proteon was performed in Proteon Manager v.2.1.1. […]

For experiment [3] the target is unchanged. Nature of the experiment: ELISA on coated LRP6-Fc, pentaHis-HRP detection. The protocol:
as §1
For scFv06475, there were two mutations affecting the activity as detected by ELISA and Proteon kinetics analysis.

Changes are numbered by the printed parent chain. In names and notes the source's numbering stands.

B1: scFv08168 wild type (scFv, V domains shown)
VH: QVQLVESGGGLVQPGGSLRLSCAASGFTFSDYVINWVRQAPGKGLEWVSGISWSGVNTHYADSVKGRFTISRDNSKNTLYLQMNSLRAEDTAVYYCARLGATANNIRYKFMDVWGQGTLVTVSS
VL: DIELTQPPSVSVAPGQTARISCSGDSLRNKVYWYQQKPGQAPVLVIYKNNRPSGIPERFSGSNSGNTATLTISGTQAEDEADYYCQSYDGQKSLVFGGGTKLTVL
notes: One polypeptide (scFv with His tag); also called MOR08168 scFv wild type
For B1, the “IC50 by STF assay for Wnt1 inhibition” value with human LRP6 was 7.41 nM. This molecule yielded a 50% effective concentration (EC50) in experiment [1] of 2.04 nM. Moreover, in experiment [2], the Kd is 3.82 nM.

B2: scFv08168 D1 (VH:I34M + VH:S49A) (scFv, V domains shown)
VH: B1 VH with I34M, S49A
VL: B1 VL
notes: Double mutant of scFv08168 (His tag); also called MOR08168D1 mutant; double mutant D1
For B2, the response in experiment [1] was half-maximal at 1.61 nM (EC50). In experiment [2], this molecule showed a Kd of 2.55 nM.

B3: scFv06475 VH:G34V (scFv, name in Kabat numbering, V domains shown)
VH: QVQLKESGPALVKPTQTLTLTCTFSGFSLSNRGVGVGWIRQPPGKALEWLAWIDWDDDKSYSTSLKTRLTISKDTSKNQVVLTMTNMDPVDTATYYCARMHLPLVFDSWGQGTLVTVSS
VL: DIVLTQSPATLSLSPGERATLSCRASQFIGSRYLAWYQQKPGQAPRLLIYGASNRATGVPARFSGSGSGTDFTLTISSLEPEDFATYYCQQYYDYPQTFGQGTKVEIK
notes: Point mutant of scFv06475 (His tag)
Take B3: the EC50 was 27 nM in experiment [3] and 27.4 nM in experiment [1].

B4: scFv06475 VH:I37F (scFv, name in Kabat numbering, V domains shown)
VH: B3 VH with V34G, I39F
VL: B3 VL
notes: as for B3
Turning to B4, in experiment [3], the concentration giving a half-maximal response (EC50) amounted to 4.3 nM.

The values above are taken from patent publication US20130058934A1 (Novartis, published 2013).
